Experimental data: patent US10415067B2, “Method for the enzymatic production of D-erythrose and acetyl phosphate” (SCIENTIST OF FORTUNE S.A., priority 2014, dated 2019)

Tests used:
[1] = target: T1, Bifidobacterium pseudolongum subsp. globosum phosphoketolase, Uniprot Q6R2Q6, SEQ ID NO: 1 (Bifidobacterium pseudolongum, UniProt Q6R2Q6); experiment: Kinetics of acetyl phosphate formation from D-fructose (hydroxamate-based colorimetric assay); format: biochemical; settings: D-fructose 0-500 mM, 50 mM sodium phosphate, pH 7.5, 37° C., 3 mg/ml enzyme
T1 sequence (Q6R2Q6 1-825): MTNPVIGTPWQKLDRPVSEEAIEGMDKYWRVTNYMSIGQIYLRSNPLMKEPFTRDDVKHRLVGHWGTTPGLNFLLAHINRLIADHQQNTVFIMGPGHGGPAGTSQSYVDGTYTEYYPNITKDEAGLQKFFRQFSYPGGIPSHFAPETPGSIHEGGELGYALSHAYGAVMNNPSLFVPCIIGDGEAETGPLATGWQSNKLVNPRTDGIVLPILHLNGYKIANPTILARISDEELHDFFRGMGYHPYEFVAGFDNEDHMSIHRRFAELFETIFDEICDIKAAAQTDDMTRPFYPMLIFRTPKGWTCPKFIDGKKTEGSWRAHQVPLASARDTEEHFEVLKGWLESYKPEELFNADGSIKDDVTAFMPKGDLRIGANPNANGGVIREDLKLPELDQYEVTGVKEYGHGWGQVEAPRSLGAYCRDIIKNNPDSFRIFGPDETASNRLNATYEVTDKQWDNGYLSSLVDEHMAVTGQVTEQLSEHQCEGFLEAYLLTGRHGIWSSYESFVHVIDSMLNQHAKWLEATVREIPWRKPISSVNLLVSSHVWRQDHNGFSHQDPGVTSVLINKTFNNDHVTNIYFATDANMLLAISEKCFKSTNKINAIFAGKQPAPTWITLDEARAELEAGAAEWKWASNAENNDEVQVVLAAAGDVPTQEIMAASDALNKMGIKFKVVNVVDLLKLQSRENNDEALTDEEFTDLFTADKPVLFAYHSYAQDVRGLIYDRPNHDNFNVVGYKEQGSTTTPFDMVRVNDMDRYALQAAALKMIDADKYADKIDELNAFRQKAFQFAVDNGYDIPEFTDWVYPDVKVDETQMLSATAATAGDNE
Description: (§1) The sequences of phosphoketolases inferred from the genomes of prokaryotic organisms were generated by oligonucleotide concatenation to fit the codon usage of E. coli (genes were commercially synthesized by GeneArt®). A stretch of 6 histidine codons was inserted after the methionine initiation codon to provide an affinity tag for purification. The genes thus synthesized were cloned in a modified pUC18 expression vector (New England Biolabs) containing a modified Multiple Cloning Sites (MCS). The genes of interest were cloned at PacI and NotI restriction sites. Competent MG1655 E. coli cells were transformed with these vectors using standard heat shock procedure. The transformed cells were grown in LB-ampicillin medium for 24 h at 30° C., 160 rpm shaking.
(§2) The pellets from 200 ml of cultured cells were thawed on ice and resuspended in 3 ml of 50 mM Tris-HCl pH 7.5 containing 300 mM NaCl, 5 mM MgCl2, 1 mM DTT and 10 mM Imidazole. 10 μl of lysonase (Merck) was added. […] Protein concentrations were quantified by direct UV 280 nm measurement on the NanoDrop 1000 spectrophotometer (Thermo Scientific). […]
(§3) The composition of enzymatic reactions was identical to that described above. Kinetic parameters were determined using a range of D-fructose concentrations (0-500 mM) and a constant concentration of sodium phosphate (50 mM). […]

[2] = target: Lactococcus lactis subsp. lactis (strain KF147) phosphoketolase, Uniprot A9QST6, SEQ ID NO: 3 (Lactococcus lactis, UniProt Q9CFH4); experiment: as above; format: biochemical; settings: D-fructose 0-500 mM, 50 mM sodium phosphate, pH 7.5, 37° C., 3 mg/ml enzyme
Description: as §1, §2, §3

[3] = substrate: O=CCO; experiment: Kinetics of acetyl phosphate formation from glycolaldehyde (hydroxamate-based colorimetric assay); format: biochemical, Bifidobacterium pseudolongum subsp. globosum; settings: other: glycolaldehyde 0-100 mM, 50 mM sodium phosphate, pH 7.5, 37° C., 3 mg/ml enzyme
Description: as §1, §2
(§4) 0.1 ml of hydroxylamine hydrochloride (2 M, pH 6.5) was added to 0.1 ml of reaction mixture. […] The samples were further clarified by centrifugation and the absorbance of ferric acetyl-hydroxamate complex was measured at 505 nm. […]

[4] = substrate: O=CCO; experiment: as above; format: biochemical, Lactococcus lactis subsp. lactis (strain KF147); settings: other: glycolaldehyde 0-100 mM, 50 mM sodium phosphate, pH 7.5, 37° C., 3 mg/ml enzyme
Description: as §1, §2, §4

[5] = substrate: O=CCO; experiment: as above; format: biochemical, Clostridium acetobutylicum (strain ATCC 824); settings: other: glycolaldehyde 0-100 mM, 50 mM sodium phosphate, pH 7.5, 37° C., 3 mg/ml enzyme
Description: as §1, §2, §4

OCC1(O)OC[C@@H](O)[C@@H](O)[C@@H]1O (stereo partly drawn) [D-fructose]
kcat [1]: 0.10 ± 0.02 s⁻¹ | kcat [2]: 0.11 ± 0.04 s⁻¹

B1: Bifidobacterium pseudolongum subsp. globosum phosphoketolase, Uniprot Q6R2Q6, SEQ ID NO: 1 (Bifidobacterium pseudolongum subsp. globosum) (protein)
chain: MTNPVIGTPWQKLDRPVSEEAIEGMDKYWRVTNYMSIGQIYLRSNPLMKEPFTRDDVKHRLVGHWGTTPGLNFLLAHINRLIADHQQNTVFIMGPGHGGPAGTSQSYVDGTYTEYYPNITKDEAGLQKFFRQFSYPGGIPSHFAPETPGSIHEGGELGYALSHAYGAVMNNPSLFVPCIIGDGEAETGPLATGWQSNKLVNPRTDGIVLPILHLNGYKIANPTILARISDEELHDFFRGMGYHPYEFVAGFDNEDHMSIHRRFAELFETIFDEICDIKAAAQTDDMTRPFYPMLIFRTPKGWTCPKFIDGKKTEGSWRAHQVPLASARDTEEHFEVLKGWLESYKPEELFNADGSIKDDVTAFMPKGDLRIGANPNANGGVIREDLKLPELDQYEVTGVKEYGHGWGQVEAPRSLGAYCRDIIKNNPDSFRIFGPDETASNRLNATYEVTDKQWDNGYLSSLVDEHMAVTGQVTEQLSEHQCEGFLEAYLLTGRHGIWSSYESFVHVIDSMLNQHAKWLEATVREIPWRKPISSVNLLVSSHVWRQDHNGFSHQDPGVTSVLINKTFNNDHVTNIYFATDANMLLAISEKCFKSTNKINAIFAGKQPAPTWITLDEARAELEAGAAEWKWASNAENNDEVQVVLAAAGDVPTQEIMAASDALNKMGIKFKVVNVVDLLKLQSRENNDEALTDEEFTDLFTADKPVLFAYHSYAQDVRGLIYDRPNHDNFNVVGYKEQGSTTTPFDMVRVNDMDRYALQAAALKMIDADKYADKIDELNAFRQKAFQFAVDNGYDIPEFTDWVYPDVKVDETQMLSATAATAGDNE
Km [3]: ≈20 mM mM | kcat [3]: 0.07 s⁻¹

B2: Lactococcus lactis subsp. lactis (strain KF147) phosphoketolase, Uniprot A9QST6, SEQ ID NO: 3 (Lactococcus lactis subsp. lactis Il1403) (protein)
chain: MTEYNSEAYLKKLDKWWRAATYLGAGMIFLKENPLFSVTGTPIKAENLKANPIGHWGTVSGQTFLYAHANRLINKYNQKMFYMGGPGHGGQAMVVPSYLDGSYTEAYPEITQDLEGMSRLFKRFSFPGGIGSHMTAQTPGSLHEGGELGYVLSHATGAILDQPEQIAFAVVGDGEAETGPLMTSWHSIKFINPKNDGAILPILDLNGFKISNPTLFARTSDVDIRKFFEGLGYSPRYIENDDIHDYMAYHKLAAEVFDKAIEDIHQIQKDAREDNRYQNGEIPAWPIVIARLPKGWGGPRYNDWSGPKFDGKGMPIEHSFRAHQVPLPLSSKNMGTLPEFVKWMTSYQPETLFNADGSLKEELRDFAPKGEMRMASNPVTNGGVDYSNLVLPDWQEFANPISENNRGKLLPDTNDNMDMNVLSKYFAEIVKLNPTRFRLFGPDETMSNRFWEMFKVTNRQWMQVIKNPNDEFISPEGRIIDSQLSEHQAEGWLEGYTLTGRTGVFASYESFLRVVDSMLTQHFKWIRQAADQKWRHDYPSLNVISTSTVFQQDHNGYTHQDPGMLTHLAEKKSDFIRQYLPADGNTLLAVFDRAFQDRSKINHIVASKQPRQQWFTKEEAEKLATDGIATIDWASTAKDGEAVDLVFASAGAEPTIETLAALHLVNEVFPQAKFRYVNVVELGRLQKKKGALNQERELSDEEFEKYFGPSGTPVIFGFHGYEDLIESIFYQRGHDGLIVHGYREDGDITTTYDMRVYSELDRFHQAIDAMQVLYVNRKVNQGLAKAFIDRMERTLVKHFEVTRNEGVDIPEFTEWVWSDLKK
Km [4]: ≈25 mM mM | kcat [4]: 0.05 s⁻¹

B3: Clostridium acetobutylicum (strain ATCC 824) phosphoketolase, Uniprot Q97JE3, SEQ ID NO: 2 (Clostridium acetobutylicum ATCC 824) (protein)
chain: MQSIIGKHKDEGKITPEYLKKIDAYWRAANFISVGQLYLLDNPLLREPLKPEHLKRKVVGHWGTIPGQNFIYAHLNRVIKKYDLDMIYVSGPGHGGQVMVSNSYLDGTYSEVYPNVSRDLNGLKKLCKQFSFPGGISSHMAPETPGSINEGGELGYSLAHSFGAVFDNPDLITACVVGDGEAETGPLATSWQANKFLNPVTDGAVLPILHLNGYKISNPTVLSRIPKDELEKFFEGNGWKPYFVEGEDPETMHKLMAETLDIVTEEILNIQKNARENNDCSRPKWPMIVLRTPKGWTGPKFVDGVPNEGSFRAHQVPLAVDRYHTENLDQLEEWLKSYKPEELFDENYRLIPELEELTPKGNKRMAANLHANGGLLLRELRTPDFRDYAVDVPTPGSTVKQDMIELGKYVRDVVKLNEDTRNFRIFGPDETMSNRLWAVFEGTKRQWLSEIKEPNDEFLSNDGRIVDSMLSEHLCEGWLEGYLLTGRHGFFASYEAFLRIVDSMITQHGKWLKVTSQLPWRKDIASLNLIATSNVWQQDHNGYTHQDPGLLGHIVDKKPEIVRAYLPADANTLLAVFDKCLHTKHKINLLVTSKHPRQQWLTMDQAVKHVEQGISIWDWASNDKGQEPDVVIASCGDTPTLEALAAVTILHEHLPELKVRFVNVVDMMKLLPENEHPHGLSDKDYNALFTTDKPVIFAFHGFAHLINQLTYHRENRNLHVHGYMEEGTITTPFDMRVQNKLDRFNLVKDVVENLPQLGNRGAHLVQLMNDKLVEHNQYIREVGEDLPEITNWQWHV
Km [5]: ≈30 mM mM | kcat [5]: 0.08 s⁻¹
